Reference: the RNAGym collection of RNA variant scans (doi:10.1073/pnas.2313332121)
This sample holds only a part of the variants without activity.

B1: TPR 5TU (parent)
chain: GGAUCUUCUCGAUCUAACAAAAAAGACAAAUCUGCCACAAAGCUUGAGAGCAUCUUCGGAUGCAGAGGCGGCAGCCUUCGGUGGCGCGAUAGCGCCAACGUUCUCAACUAUGACACGCAAAACGCGUGCUCCGUUGAAUGGAGUUUAUCAUG

Variants of: B1
Assay: polymerase ribozyme fitness, log enrichment relative to wild type (log ratio); higher = more active; in vitro selection for triplet polymerase activity
Outline: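 The heterodimeric triplet polymerase ribozyme's subunits were each mutagenized into PCR-built libraries and transcribed. Every library was selected once, in triplicate, by annealing with a biotinylated primer, the partner subunit and triplets, incubating frozen at −7 °C, gel-excising extended constructs, capturing on streptavidin beads and running RT-PCR. Input and output libraries were Illumina-sequenced, with genotypes kept only at ≥10 input reads and ≥1 read per output. Fitness, from inverse-variance-weighted replicate averages, is the base-2 logarithm of genotype enrichment over wild-type enrichment.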

Variant | polymerase ribozyme fitness (log ratio)
C76A C85A A138G U145C | ≤ -4.2
G74A G84A A89G | ≤ -4.2
C75U A122U | -0.205
C72G C108U A137C | ≤ -4.2
C75U A91C A119G G136U | ≤ -4.2
C72U G143C | -3.23
A73G C85A | -1.22
C76G G88A G136A U139G | ≤ -4.2
G74A U145A | -3.36
C75U G94C A142C | -2.58
C76A A98U | -0.0442
C72U | -0.00972
C72G | -3.79
C72U U134A | -2.32
A73U C96U C108G G141A U146G | ≤ -4.2
C75A G83A A98U | -4.16
A73G C87A | -4.18
A73G C87U | -1.55
A73G C93U G141U | 0.326
C76A C123U U134A | -1.5
C75U G92U C93G | -1.13

Variant | polymerase ribozyme fitness (log ratio)
A73C C87G G141C | ≤ -4.2
C75U A89C C95U | -0.65
G74U G88A A119U C125U | -3.95
C76A C103U U134A | -4.15
C75U G83A C105G G128U U134A A138U G141U | ≤ -4.2
C75G C85U A106C A115G G141U | ≤ -4.2
G74A A89C G94U U109G G117U | ≤ -4.2
C76A C129G G136A | -3.95
C75U U134A | -1.13
C72U C85G | -1.95
C75G G92C C123A | ≤ -4.2
C72U G126U C132A | -4.12
C72G G86C | ≤ -4.2
C75U G92C C132A | ≤ -4.2
G74A U77A G92U G112U G124A | ≤ -4.2
C75U A137C | -3.47
G74C U90C A91C U104G U130A | ≤ -4.2
G74A G100U U104C U109G U146A | ≤ -4.2
C72A U148A | ≤ -4.2
C76G G94C | ≤ -4.2
C76G G84U C116A | ≤ -4.2

Variant | polymerase ribozyme fitness (log ratio)
C75G C85U C87A A113G | ≤ -4.2
C72G A91C | ≤ -4.2
C75A G86U | ≤ -4.2
C75U U144C | -0.607
C76G C87A U111A | ≤ -4.2
A73G G83U G84U | -1.48
A73G A107U | -4.1
A73U C75U C118G | ≤ -4.2
C72U C96A C105U C132U | -1.29
C75G G81A G92U C125G | ≤ -4.2
A73U C85A | -2.44
C76G G84A A122G | ≤ -4.2
C76U C85A G141C U148C | -3.74
C75U C79A | ≤ -4.2
C76A G128C | -3.67
C76G G81A | ≤ -4.2
C76A C95U | 0.252
A73G C87G U146G | ≤ -4.2
C76G A115G A121U | ≤ -4.2
C72U U90C C93A U104A U127A | ≤ -4.2
C76A G84A | -0.957

Variant | polymerase ribozyme fitness (log ratio)
C75U G86C A115U | -2.41
A73G C96G C105A U139A | ≤ -4.2
C72A U78G C85U A97U G140C | ≤ -4.2
A73G U148C | -2.55
A73G U148A | -3.81
C76A G84A U134G | -2.67
C72U C87U U101G G124C | -1.6
A73U C93U | -1.62
A73U C93A | -3.39
C75U U90C A91U C93G G94U A98C | ≤ -4.2
C76A A97G | -1.4
A73G A97G | 0.222
G74C A150C | ≤ -4.2
C76G U78C C93U C103G A137G | ≤ -4.2
C76A A91G | -3.83
C76A A91U | ≤ -4.2
C72G G81U C87A C95U U104A | ≤ -4.2
C75G C93U | -3.74
A73C A107G | ≤ -4.2
G74C C76A C87U C114U C116U | ≤ -4.2
A73G U134G | -2.2
